Assay results as given in publication PMC10145791.

How the values were obtained:
VEGF-A165 (Homo sapiens) = VEGF-A165 (Homo sapiens) (UniProt P15692); details: cited from earlier work
[1] = target: recombinant human neuropilin-1 (human) (UniProt O14786); experiment: SPR; SPRi, stage 1: mixtures of NRP-1 (1 ng/mL) with VEGF-A (0.01, 0.10, 1.00, 10.0 ng/mL) dropped onto the immobilised mouse monoclonal anti-NRP-1 antibody (200 ng/mL on cysteamine/gold); read-out is the free NRP-1 that the antibody captures (recovery %); pH 7.4, 10 min

neuropilin-1 soluble (from UniProt O14786)
Kd (VEGF-A165 (Homo sapiens)): 7.5 nM

vascular endothelial growth factor VEGFA (from UniProt P15692 1-395) (ligand)
recovery of free NRP-1 (1 ng/mL added) on the antibody with 0.01 ng/mL VEGF-A [1]: 98%
recovery of free NRP-1 (1 ng/mL added) on the antibody with 0.10 ng/mL VEGF-A [1]: 85%
recovery of free NRP-1 (1 ng/mL added) on the antibody with 1.00 ng/mL VEGF-A [1]: 36%
recovery of free NRP-1 (1 ng/mL added) on the antibody with 10.0 ng/mL VEGF-A [1]: < 1%
